Laboratory results published in US20230045262A1 (Hoffmann-La Roche, published 2023).
Read-outs that look alike come from different tables or passages of the source.

Legend:
[1] = molecular target: T1, human 4-1BB on cells (activated human T cells; HeLa-hu4-1BB-NFκB-luc clone 26; Jurkat-hu4-1BB-NFκB-luc2) (human, UniProt Q07011 24-255); experiment: flow cytometry on activated human CD8+ T cells, PE anti-human Fc secondary
T1 construct: also called CD137; cell-expressed 4-1BB

[2] = molecular target: T1, human 4-1BB on cells (activated human T …); experiment: cell-based or functional assay
[3] = molecular target: T1, human 4-1BB on cells (activated human T …); experiment: flow cytometry on activated human CD4+ T cells, PE anti-human Fc secondary
[4] = molecular target: T2, human FAP on cells (WM-266-4; NIH/3T3-huFAP clone 19) (human, UniProt Q12884 1-760); experiment: flow cytometry on WM-266-4 and NIH/3T3-huFAP clone 19 cells
T2 construct: transfected in NIH/3T3-huFAP clone 19

[5] = molecular target: T1, human 4-1BB on cells (activated human T …); experiment: cell-based or functional assay; remark: listed apart in the source
[6] = molecular target: T3, hu4-1BB-SNAP fusion on Hek293 EBNA cells (human, UniProt Q07011 24-255, labeled with the FRET donor Terbium); experiment: TagLite FRET competition on hu4-1BB-SNAP cells; competitor 0.6 nM d2-labelled 20H4.9 IgG; 4 h
T3 construct: also called hu 4-1BB (TagLite); not shown: SNAP tag

[7] = molecular target: T1, human 4-1BB on cells (activated human T …); experiment: cell-based or functional assay; remark: listed apart in the source
[8] = molecular target: T3, hu4-1BB-SNAP fusion on Hek293 EBNA cells; experiment: TagLite FRET competition on hu4-1BB-SNAP cells; competitor 0.6 nM d2-labelled 20H4.9 IgG; 4 h; remark: listed apart in the source

B1: 4-1BB (20H4.9) huIgG1 P329G LALA (antibody, V domains shown)
VH: QVQLQQWGAGLLKPSETLSLTCAVYGGSFSGYYWSWIRQSPEKGLEWIGEINHGGYVTYNPSLESRVTISVDTSKNQFSLKLSSVTAADTAVYYCARDYGPGNYDWYFDLWGRGTLVTVSS
VL: EIVLTQSPATLSLSPGERATLSCRASQSVSSYLAWYQQKPGQAPRLLIYDASNRATGIPARFSGSGSGTDFTLTISSLEPEDFAVYYCQQRSNWPPALTFGGGTKVEIK
notes: rest is human IgG1 with P329G, L234A, L235A; In the FRET assay the same IgG, labelled with d2, is the tracer; also called 20H4.9 IgG; anti-4-1BB (20H4.9) huIgG1 P329G LALA
EC50 [1]: 0.1 nM
EC50 of human PBMC activation curves, % CD25+ CD4 (with NIH/3T3-huFAP cells and anti-CD3) [2]: 0.1 nM
EC50 [3]: 0.1 nM
binding result [4]: no binding
EC50 of activation of the NFκB signaling pathway (luciferase, HeLa-hu4-1BB-NFκB-luc), no FAP+ cells [5]: 1.07 nM
EC50 of activation of the NFκB signaling pathway (luciferase, HeLa-hu4-1BB-NFκB-luc), with 3T3-huFAP cells [5]: 2.17 nM
EC50 of activation of the NFκB signaling pathway (luciferase, HeLa-hu4-1BB-NFκB-luc), with WM-266-4 cells [5]: 0.64 nM
EC50 [6]: 1.5 nM
EC50 interval [6]: 0.9 to 2.5 nM
EC50 of Jurkat-hu4-1BB-NFκB-luc2 reporter cell line activation curves in the presence of CEA-expressing MKN45 tumor cells [7]: 0.02 nM
EC50 [8]: 1.5 nM
EC50 interval [8]: 0.9 to 2.4 nM
